Data reported in the supplement of paper PMC9170038.

System: MS2 coat protein
Assay: apparent KD of MS2 coat protein; designed switch direction (-1 OFF switch, 1 ON switch): -1; higher = weaker reporter binding
How it was run: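 The apparent KD reported per design is the median over clusters of curve fits to normalised cluster fluorescence. The RNA switches were transcribed on Illumina chips by stalled E. coli RNA polymerase. SNAP-549-labelled MS2 coat protein was titrated from 0.7 or 1.5 nM, doubling up to 3 µM, in Tris-HCl pH 7.5 buffer containing KCl, MgCl2, BSA, DTT, tRNA and Tween-20, with no input, 200 uM small-molecule ligand, or an oligonucleotide input.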

[1] = input ligand: microRNA oligo, concentration not stated
[2] = Eterna round: R95, input ligand: microRNA oligo, concentration not stated
[3] = Eterna round: R95, input ligand: FMN 200 uM
[4] = Eterna round: R95, input ligand: none

Sequence	apparent KD of MS2 coat protein (input ligand: FMN 200 uM)	apparent KD of MS2 coat protein [1]	apparent KD of MS2 coat protein (input ligand: none)	apparent KD of MS2 coat protein [2]	apparent KD of MS2 coat protein [3]	apparent KD of MS2 coat protein [4]
AUAUCAAGCAAGGAUAUGCAAAUGGUUAUUUAUGCAGAAGGUGCAACAUGAGGAUCACCCAUGUUUCUGGGUUU [JR_E6_Sub049] (Eterna round: R96, puzzle: Exclusion 6)	0.124 µM	0.0417 µM	0.0557 µM	–	–	–
AUAUCAAGCAAGGAUAUGCAAAUGGUUAUUUAUGCAGAAGGUGCAACAUGAGGAUCACCCAUGUUUCUGGGUUU [JR_E6_Sub049] (puzzle: Exclusion 6)	–	–	–	0.0482 µM	–	–
AUAUCACAUGAGGAUCACCCAUGUCAGGAUAUCGACUGAACAGCUUCGGCUGUUCAGUCGAGAAGGGACAAUUA [Brourdxlusion 2 - Jieux - Exclusion 1] (Eterna round: R97, puzzle: Exclusion 1)	0.0849 µM	–	0.0562 µM	–	–	–
AUAUCGUGAGGAUAUCCAAUAUAUGACAUGAGGAUCACCCAUGUUUCCACUCGUACCUCCGGAGAAGGCACAGUUU [Ex5 #71] (Eterna round: R97, puzzle: Exclusion 5)	0.0224 µM	–	0.0322 µM	–	–	–
AUAUGCAAGUAAAGAUCCUACAUGAGGAUCACCCAUGUGCUCGUCUUAUAAAGUACUAUCACGAAAGUGAUAGUACA [Mat - Sensor v3 - turn-off var 1 - Eli Mod - D84] (puzzle: Sensor v3, turn-off variant 1)	–	–	–	0.0156 µM	0.215 µM	0.17 µM
AUAUUACAUGAGGAUCACCCAUGUGAGGAUAUGGAGAGCGACCGCCCGGUCGCGUACACCAGAAGGCGCAGGCG [1st #59] (Eterna round: R97, puzzle: Exclusion 1)	0.0857 µM	–	0.0411 µM	–	–	–
AUAUUACAUGAGGAUCACCCAUGUGAGGAUAUGGAGCGAGACUGUCCUGUCGCGUACACCAGAAGGCGCGGGUG [1st #52] (Eterna round: R97, puzzle: Exclusion 1)	0.183 µM	–	0.118 µM	–	–	–
AUAUUGUGAGGAUAUGAACUUAGUAUCGAAAGAUACAAAGUUCAGAAGGCACAUGAGGAUCACCCAUGUUUCUC [Long static hairpin v7] (Eterna round: R97, puzzle: Exclusion 4)	0.703 µM	–	0.0761 µM	–	–	–
AUAUUGUGAGGAUAUGAACUUAGUAUCGAAAGAUACUUAGUUCAGAAGGCACAUGAGGAUCACCCAUGUUUCUC [Long static hairpin v17] (Eterna round: R97, puzzle: Exclusion 4)	0.883 µM	–	0.0698 µM	–	–	–
AUAUUGUGAGGAUAUGAACUUAGUAUCGAAAGAUAGUAAGUUCAGAAGGCACAUGAGGAUCACCCAUGUUUCUC [Long static hairpin v8] (Eterna round: R97, puzzle: Exclusion 4)	0.399 µM	–	0.0698 µM	–	–	–
AUCAGCUCGUGAGGAUAUACAUCACUGCUUCGGCAGUGUAUUAAGAUCACAUGAGGAUCACCCAUGUAGAAGGUACGAGCUGAU [ENG2/2-C3] (Eterna round: R96, puzzle: Exclusion NG 2)	0.215 µM	0.0208 µM	0.0261 µM	–	–	–
AUCAUAACCUAGGAUAUGUAGCAGCCCGCAGCGACAGAAGGAGGUACAUGAGGAUCACCCAUGUCCACUCCCGU [EX6 C.11] (Eterna round: R97, puzzle: Exclusion 6)	0.0124 µM	–	0.0118 µM	–	–	–
AUCAUGGACGCAGGAUAUACAUGAGGAUCACCCAUGUAGUAUGAUCAGUGAUGGUCGUCGAUAGUGUAGAAGGGCGGCUAGUAG [random] (Eterna round: R96, puzzle: Exclusion NG 2)	0.0344 µM	0.0242 µM	0.0328 µM	–	–	–
AUCAUGUAAGGAUAUCUUACAUGUGACUUCGGUCACUGUCAAGAGAAGGUACAUGAGGAUCACCCAUGUAUGAC [Ex4-3: 51] (puzzle: Exclusion 4)	–	–	–	0.0168 µM	–	–
AUCAUGUCAGGAUAUAUGACAUGGCUCUUCGGAGCAAGCUCAUAGAAGGGACAUGAGGAUCACCCAUGUAGAGC [Ex4-3: 22] (puzzle: Exclusion 4)	–	–	–	0.0221 µM	–	–
AUCGAGAUAGGAUAUGCCCAAGUAAACAUGAGGAUCACCCAUGUGGGUCACCUCUUCACGGUAGAAGGGUUAGAUU [Eternabot (L1) Solution 90] (Eterna round: R97, puzzle: Exclusion 5)	0.062 µM	–	0.0818 µM	–	–	–

Sequence	apparent KD of MS2 coat protein (input ligand: FMN 200 uM)	apparent KD of MS2 coat protein [1]	apparent KD of MS2 coat protein (input ligand: none)	apparent KD of MS2 coat protein [2]	apparent KD of MS2 coat protein [3]	apparent KD of MS2 coat protein [4]
AUCGUACAGCAAAGCUGUACGAGUACAUGAGGAUCACCCAUGUAGGAUAUGGUACGCAAAGCGUGCUAGAAGGAUAUGAGAUUU [Mat - Exclusion NG 3 - Mod of JL - D101] (Eterna round: R96, puzzle: Exclusion NG 3)	0.0485 µM	0.0304 µM	0.0487 µM	–	–	–
AUCGUGUUAGGAUAUACACGACGCUGGGUAGCGGGCGGAGGGUAGAAGGGACAUGAGGAUCACCCAUGUUCGGG [Somalaesar] (Eterna round: R97, puzzle: Exclusion 4)	0.0412 µM	–	0.0466 µM	–	–	–
AUCUGCACGCUGCGGUCCUACAUGAGGAUCACCCAUGUGGUCUGGUGGCGUGGGUCACCGGACUUGGCUCGUCUUGC [salish99_S_TOV1_R5_054] (Eterna round: R97, puzzle: Sensor, turn-off variant 1)	0.0198 µM	–	0.0196 µM	–	–	–
AUCUUGUCAGGAUAUCUUACAUAACAAUCGUAGUUACCAUUGGAGAAGGGACAUGAGGAUCACCCAUGUUAGCC [tap-tap-tappy42] (Eterna round: R97, puzzle: Exclusion 4)	0.0208 µM	–	0.0198 µM	–	–	–
AUGAACAAGCUUUUUGCAAACAUGAGGAUCACCCAUGUCUUAUAUCGUACCAUGCUAGGCCCUAGCAUGGUACGAUU [jl sellena mod 2] (Eterna round: R97, puzzle: Sensor, turn-off variant 1)	0.0176 µM	–	0.0146 µM	–	–	–
AUGAAGUAAGGAUAUACAUGAGGAUCACCCAUGUAAAGAAAAGUAAUGGGAGUAAGAAGUAGAAGGUACGAGAA [JR_Exclu3_Sub061] (puzzle: Exclusion 3)	–	–	–	0.0482 µM	0.0534 µM	0.0541 µM
AUGAGCAGACGGAGAUCCAACAUGAGGAUCACCCAUGUCUCAAAAGCUUUUUGCUCAUCUUAUUGUACCUUGGUGCA [Mat - Sensor v3 - turn-off var 1 - JL Mod - D17] (puzzle: Sensor v3, turn-off variant 1)	–	–	–	0.0165 µM	0.172 µM	0.213 µM
AUGAGCAGACGGAGAUCCAACAUGAGGAUCACCCAUGUCUCAUAAGCUUUUUGCUCAUCUUAUUGUACCUUGGUGCU [Mat - Sensor v3 - turn-off var 1 - JL Mod - D19] (puzzle: Sensor v3, turn-off variant 1)	–	–	–	0.0115 µM	0.191 µM	0.251 µM
AUGAGGUUAGGAUAUACAUGAGGAUCACCCAUGUUGGAGAAGGAAAUGUAAGUAGCGAGUAGAAGGAACGGAGC [JR_Exclu3_Sub059] (Eterna round: R96, puzzle: Exclusion 3)	0.0486 µM	0.0404 µM	0.049 µM	–	–	–
AUGAGGUUAGGAUAUACAUGAGGAUCACCCAUGUUGGAGAAGGAAAUGUAAGUAGCGAGUAGAAGGAACGGAGC [JR_Exclu3_Sub059] (puzzle: Exclusion 3)	–	–	–	0.0441 µM	–	–
AUGAUACAUGAGGAUCACCCAUGUUAGGAUAUACGCAUGCAUGCAUGCAUGCAUGCAAGUAGAAGGAACCAUGC [Design #2] (Eterna round: R97, puzzle: Exclusion 1)	0.0568 µM	–	0.0482 µM	–	–	–
AUGCUCCGUGUAGGAUAUCGCCGCACCACUCGGCGAGAAGGACAUGAGGAUCACCCAUGUAUGUUAUUAUCACGUGUGGCGCGC [Design 43] (Eterna round: R96, puzzle: Exclusion NG 1)	0.0151 µM	0.013 µM	0.0159 µM	–	–	–
AUGGGACAUGAGGAUCACCCAUGUCAGGAUAUGCUCUGAUGCGGCGUACGCCGUGCUAGCAGAAGGGACUACCU [EX1 C.19] (Eterna round: R97, puzzle: Exclusion 1)	0.029 µM	–	0.028 µM	–	–	–
AUGGGUCCUCACGGAGCUACAUGAGGAUCACCCAUGUGGAUUGAGGAUAUCGACAGCCGACGGCUCGAGAAGGCAGUUUACUGU [Ex NG3 #96] (Eterna round: R96, puzzle: Exclusion NG 3)	0.035 µM	0.0232 µM	0.0264 µM	–	–	–
AUGGGUCGGGAGGAUAUUCGGGCUCAUGGGCUUGGAGAAGGCUCGACAUGAGGAUCACCCAUGUAAGUGUUCUU [-25, -23.1 kcal, A 22%] (Eterna round: R97, puzzle: Exclusion 6)	0.55 µM	–	0.0322 µM	–	–	–
